Numbering of substitutions follows the chain as printed. Names may count otherwise.

Assay [1] addresses T1, human serum albumin (human, UniProt P02768 25-609).
T1 construct: Immobilised by amine coupling on a C1 chip; also called HSA
Briefly: SPR Biacore 8K+, HSA amine-coupled on C1 chip, ISVD analyte, 1:1 fit. (In general: In SPR one partner is held on a chip, and binding of the other changes the refractive index at the surface.)

Assay [2] deals with T1, human serum albumin. Put plainly: SPR on HSA (Example 2; method not restated, as Example 1).
For a further assay, the target named is soluble human TNFα (human, UniProt P01375 77-233). Put plainly: cell-based or functional assay.
Assay [3] deals with T2, recombinant human CEACAM5 (human, UniProt P06731 35-685, limits assumed).
T2 construct: Immobilised by amine coupling on a CM5 chip
T2 sequence (looked up): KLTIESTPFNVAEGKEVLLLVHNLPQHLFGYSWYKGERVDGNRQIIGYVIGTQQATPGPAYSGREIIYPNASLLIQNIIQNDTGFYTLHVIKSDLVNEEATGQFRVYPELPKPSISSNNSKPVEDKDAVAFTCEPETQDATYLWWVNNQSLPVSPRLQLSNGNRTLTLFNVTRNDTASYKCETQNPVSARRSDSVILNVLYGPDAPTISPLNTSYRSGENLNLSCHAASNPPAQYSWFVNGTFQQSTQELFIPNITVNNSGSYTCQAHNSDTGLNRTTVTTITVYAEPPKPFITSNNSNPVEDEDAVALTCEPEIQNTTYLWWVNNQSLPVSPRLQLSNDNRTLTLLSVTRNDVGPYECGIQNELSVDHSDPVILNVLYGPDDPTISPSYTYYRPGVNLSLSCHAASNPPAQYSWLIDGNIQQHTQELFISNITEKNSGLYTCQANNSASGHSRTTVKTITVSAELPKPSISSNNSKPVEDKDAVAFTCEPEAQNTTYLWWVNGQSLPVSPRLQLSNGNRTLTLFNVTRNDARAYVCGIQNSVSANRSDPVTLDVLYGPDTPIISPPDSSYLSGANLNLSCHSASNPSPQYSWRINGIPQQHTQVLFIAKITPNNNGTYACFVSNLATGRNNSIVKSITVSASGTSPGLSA
Briefly: SPR on CEACAM5 (Example 2; method not restated, as Example 1).

T1 sequence (P02768 25-609 limits assumed): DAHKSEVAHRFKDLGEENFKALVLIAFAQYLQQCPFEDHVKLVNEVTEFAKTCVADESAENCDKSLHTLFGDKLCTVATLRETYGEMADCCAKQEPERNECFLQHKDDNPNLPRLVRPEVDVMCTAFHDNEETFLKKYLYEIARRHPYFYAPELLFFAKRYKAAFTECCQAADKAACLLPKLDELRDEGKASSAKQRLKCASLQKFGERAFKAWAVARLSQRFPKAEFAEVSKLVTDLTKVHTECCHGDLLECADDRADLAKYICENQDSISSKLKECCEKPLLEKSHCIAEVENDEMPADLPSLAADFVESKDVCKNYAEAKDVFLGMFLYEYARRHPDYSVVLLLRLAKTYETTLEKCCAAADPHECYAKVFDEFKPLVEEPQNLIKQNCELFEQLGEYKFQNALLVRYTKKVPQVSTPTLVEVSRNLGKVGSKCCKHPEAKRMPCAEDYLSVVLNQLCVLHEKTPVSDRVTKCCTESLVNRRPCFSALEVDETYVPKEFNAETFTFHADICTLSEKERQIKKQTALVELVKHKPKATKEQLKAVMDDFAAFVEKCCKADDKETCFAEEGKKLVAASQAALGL
Chain of soluble human TNFα (P01375 77-233 limits assumed): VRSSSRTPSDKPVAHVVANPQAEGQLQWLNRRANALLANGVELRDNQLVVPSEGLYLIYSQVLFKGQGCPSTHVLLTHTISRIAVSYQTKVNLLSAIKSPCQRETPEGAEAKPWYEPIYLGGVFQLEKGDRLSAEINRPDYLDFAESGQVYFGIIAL

B1: T028501809 (VHH)
VHH: EVQLVESGGGVVQPGGSLRLSCAASGFTFRSFGMSWVRQAPGAGPEWVSSISGSGSDTLYADSVKGRFTISRDNSKNTLYLQMNSLRPEDTALYYCTIGGSLSRSSQGTLVTVSS
notes: K43A vs precursor T028501805; also called HSA006A06(K43A, K83R)
What is called Kd is the equilibrium constant for the complex coming apart. In general, koff refers to a measure of how fast the partners let go of each other. Broadly, the kon is the second-order rate constant of association. In the assay with human serum albumin [1], B1 displayed a Kd of 1.13 nM, a koff of 0.000872 s⁻¹ and a kon of 769000 M⁻¹ s⁻¹.

B2: T039400046 (VHH)
VHH: B1 VHH with A43R, K65R, K76R
notes: Single lysine at the C-terminus; also called HIS6-ENLYFQS-5GS-HSA006A06(K43R, K64R, K75R, K83R)-K
In the assay with human serum albumin [2], B2 came in with a dissociation constant (Kd) of 5.95 nM, a koff of 0.00224 s⁻¹ and a kon of 377000 M⁻¹ s⁻¹.

B3: T028501811 (VHH)
VHH: B1 VHH with A43K, K65Q
notes: K64Q vs precursor T028501805; also called HSA006A06(K64Q, K83R)
In the assay with human serum albumin [1], B3 yielded a Kd of 1.76 nM, a dissociation rate constant (koff) of 0.00103 s⁻¹ and an association rate constant (kon) of 587000 M⁻¹ s⁻¹.

B4: T028501835 (VHH)
VHH: B1 VHH with A43K, K65A
notes: K64A vs precursor T028501805; also called HSA006A06(K64A, K83R)
For B4, in the assay with human serum albumin [1], the Kd is 2.06 nM, the koff is 0.00108 s⁻¹ and the on-rate constant (kon) worked out at 524000 M⁻¹ s⁻¹.

B5: T028501814 (VHH)
VHH: B1 VHH with A43K, K76Q
notes: K75Q vs precursor T028501805; also called HSA006A06(K75Q, K83R)
B5: in the assay with human serum albumin [1], binding was put at a Kd of 1.4 nM, the off-rate constant (koff) worked out at 0.00114 s⁻¹ and the association rate constant (kon) was found to be 814000 M⁻¹ s⁻¹.

B6: T028501810 (VHH)
VHH: B1 VHH with A43K, K65E
notes: K64E vs precursor T028501805; also called HSA006A06(K64E,K83R)
In the assay with human serum albumin [1], B6 gave a Kd of 1.93 nM, a koff of 0.00124 s⁻¹ and a kon of 644000 M⁻¹ s⁻¹.

B7: T028501816 (VHH)
VHH: B1 VHH with A43K, K76A
notes: K75A vs precursor T028501805; also called HSA006A06(K75A, K83R)
In the assay with human serum albumin [1], B7 yielded a Kd of 1.31 nM, a koff of 0.00105 s⁻¹ and an association rate constant (kon) of 799000 M⁻¹ s⁻¹.

B8: T028501813 (VHH)
VHH: B1 VHH with A43K, K76E
notes: K75E vs precursor T028501805; also called HSA006A06(K75E, K83R)
For B8, in the assay with human serum albumin [1], the dissociation constant (Kd) came to 1.98 nM, the koff is 0.00102 s⁻¹ and the on-rate (kon) is 514000 M⁻¹ s⁻¹.

B9: T039400040 (VHH)
VHH: B1 VHH with A43R, K65R, K76R
notes: No lysine; also called HIS6-ENLYFQS-5GS-HSA006A06(K43R, K64R, K75R, K83R)
In the assay with human serum albumin [2], B9 yielded a dissociation constant (Kd) of 6.22 nM, a koff of 0.00231 s⁻¹ and a kon of 371000 M⁻¹ s⁻¹.

B10: T028501836 (VHH)
VHH: B1 VHH with A43K, K76H
In the assay with human serum albumin [1], B10 had a Kd of 1.35 nM, a koff of 0.00114 s⁻¹ and an on-rate constant (kon) of 839000 M⁻¹ s⁻¹.

B11: T039400041 (VHH)
VHH: B1 VHH with A43R, K76R
notes: Single lysine at 64; also called HIS6-ENLYFQS-5GS-HSA006A06(K43R, K75R, K83R)
Consider B11, for which, in the assay with human serum albumin [2], binding was put at a Kd of 8.01 nM, the off-rate constant (koff) was 0.00232 s⁻¹ and the kon was found to be 289000 M⁻¹ s⁻¹.

B12: T028501815 (VHH)
VHH: B1 VHH with A43K, K76R
notes: K75R vs precursor T028501805; also called HSA006A06(K75R, K83R)
In the case of B12, in the assay with human serum albumin [1], the dissociation constant (Kd) amounted to 1.48 nM, the off-rate constant (koff) came to 0.00127 s⁻¹ and the kon was 860000 M⁻¹ s⁻¹.

B13: T039400039 (VHH)
VHH: B1 VHH with A43R, K65R
notes: Single lysine at 75; also called HIS6-ENLYFQS-5GS-HSA006A06(K43R, K64R, K83R)
In the assay with human serum albumin [2], B13 returned a Kd of 7.51 nM, a koff of 0.00226 s⁻¹ and a kon of 301000 M⁻¹ s⁻¹.

B14: T039400044 (VHH)
VHH: B1 VHH with A43R, K65R, K76R, Q107K
notes: also called HIS6-ENLYFQS-5GS-HSA006A06(K43R, K64R, K75R, K83R, Q105K)
In the assay with human serum albumin [2], B14 gave a Kd of 6.42 nM, a koff of 0.00229 s⁻¹ and a kon of 357000 M⁻¹ s⁻¹.

B15: T028501812 (VHH)
VHH: B1 VHH with A43K, K65H
notes: K64H vs precursor T028501805; also called HSA006A06(K64H, K83R)
Take B15: in the assay with human serum albumin [1], the affinity, expressed as Kd, was 1.74 nM; the koff was determined as 0.00102 s⁻¹; the kon came out at 590000 M⁻¹ s⁻¹.

B16: T039400043 (VHH)
VHH: B1 VHH with A43K, K65R, K76R
notes: Single lysine at 43; also called HIS6-ENLYFQS-5GS-HSA006A06(K64R, K75R, K83R)
Consider B16, for which, in the assay with human serum albumin [2], the Kd is 6.42 nM, the dissociation rate constant (koff) came out at 0.00226 s⁻¹ and the kon was 353000 M⁻¹ s⁻¹.

B17: T039400045 (VHH)
VHH: B1 VHH with A43R, P45K, K65R, K76R
notes: Single lysine at 45; also called HIS6-ENLYFQS-5GS-HSA006A06(K43R, P45K,K64R, K75R, K83R)
B17: in the assay with human serum albumin [2], the Kd was 8.59 nM, the koff worked out at 0.00263 s⁻¹ and the kon was found to be 306000 M⁻¹ s⁻¹.

B18: T039400042 (VHH)
VHH: B1 VHH with A43R, K65R, N74K, K76R
notes: Single lysine at 73; also called HIS6-ENLYFQS-5GS-HSA006A06(K43R, K64R, N73K, K75R, K83R)
For B18, in the assay with human serum albumin [2], the Kd was 89.6 nM, the koff is 0.0178 s⁻¹ and the kon is 198000 M⁻¹ s⁻¹.

B19: T028501834 (VHH)
VHH: B1 VHH with A43K, K65R
notes: K64R vs precursor T028501805; also called HSA006A06(K64R, K83R)
As to B19, in the assay with human serum albumin [1], the dissociation constant Kd came to 1.11 nM, the koff was found to be 0.00112 s⁻¹ and the kon stood at 1.01e+06 M⁻¹ s⁻¹.

B20: T028501833 (VHH)
VHH: B1 VHH with A43R
notes: K43R vs precursor T028501805; also called HSA006A06(K43R, K83R)
For B20, in the assay with human serum albumin [1], binding was put at a Kd of 1.29 nM, the koff stood at 0.000906 s⁻¹ and the on-rate (kon) came out at 703000 M⁻¹ s⁻¹.

B21: T031200256 (VHH)
VHH: DVQLVESGGGVVQPGGSLRLSCTASGFTFSTADMGWFRQAPGKGREFVARISGIDGTTYYDEPVKGRFTISRDKSKNTVYLQMNSLKPEDTALYYCRSPRYADQWSAYDYWGQGTLVTVSS
As to B21, in the assay with soluble human TNFα, the “IC50, inhibition of human TNFα-induced NFkB activation (HEK293_NFkB-NLucP Nano luciferase reporter)” value was 4.3e-11 M (inferred; column head prints 'Average of ka (1/Ms)').

B22: T039400047 (VHH)
VHH: EVQLVESGGGVVQPGGSLRLSCAASGLTFSTYTMGWFRQAPGREREFVAAIIWSGSNTYYADSVKGRFTISRDNARNTVYLQMNSLRPEDTALYYCAAQHFGPIGLTTRGYHYWGQGTLVTVSS
notes: Single lysine at 64; also called HIS6-ENLYFQS-5GS-A0315007E07(K43R, K75R)
B22: in assay [3], the equilibrium dissociation constant (Kd) turned out to be 0.915 nM, the off-rate constant (koff) came out at 0.000451 s⁻¹ and the on-rate (kon) worked out at 493000 M⁻¹ s⁻¹.

B23: T039400054 (VHH)
VHH: B22 VHH with K65R
notes: Single lysine at the C-terminus; also called HIS6-ENLYFQS-5GS-A0315007E07(K43R, K64R, K75R,)-K
Turning to B23, in assay [3], the Kd was determined as 1.01 nM, the koff came to 0.000526 s⁻¹ and the on-rate constant (kon) stood at 522000 M⁻¹ s⁻¹.

B24: T039400050 (VHH)
VHH: B22 VHH with K65R
notes: No lysine; also called HIS6-ENLYFQS-5GS-A0315007E07(K43R, K64R, K75R)
As to B24, in assay [3], the Kd is 0.952 nM, the koff is 0.000526 s⁻¹ and the kon was found to be 553000 M⁻¹ s⁻¹.

B25: T039400052 (VHH)
VHH: B22 VHH with K65R, N74K
notes: Single lysine at 73; also called HIS6-ENLYFQS-5GS-A0315007E07K43R, K64R, N73K, K75R
Consider B25, for which, in assay [3], the equilibrium dissociation constant (Kd) was 1.43 nM, the koff worked out at 0.000633 s⁻¹ and the kon stood at 441000 M⁻¹ s⁻¹.

B26: T039400053 (VHH)
VHH: B22 VHH with R43K, K65R
notes: Single lysine at 43; 24 used; also called HIS6-ENLYFQS-5GS-A0315007E07(K64R, K75R,)
As to B26, in assay [3], the Kd came out at 0.943 nM, the koff turned out to be 0.000516 s⁻¹ and the on-rate (kon) turned out to be 547000 M⁻¹ s⁻¹.

B27: T039400048 (VHH)
VHH: B22 VHH with R45K, K65R
notes: Single lysine at 45; also called HIS6-ENLYFQS-5GS-A0315007E07(K43R, R45K, K64R, K75R)
B27: in assay [3], the Kd came out at 0.874 nM, the koff worked out at 0.000504 s⁻¹ and the on-rate (kon) was 577000 M⁻¹ s⁻¹.

B28: T039400049 (VHH)
VHH: B22 VHH with K65R, Q116K
notes: also called HIS6-ENLYFQS-5GS-A0315007E07(K43R, K64R, K75R, Q105K)
B28: in assay [3], the dissociation constant Kd stood at 0.914 nM, the off-rate (koff) came to 0.000536 s⁻¹ and the on-rate constant (kon) is 586000 M⁻¹ s⁻¹.

(Values after US20250236673A1 (Ablynx, published 2025).)
